Values of other authors in publication PMC10379010, “Short Peptides of Innate Immunity Protein Tag7 (PGLYRP1) Selectively Induce Inhibition or Activation of Tumor Cell Death via TNF Receptor” (International Journal of Molecular Sciences, 2023).

Tested on: TNFR1
Parameters: method as in 3 sources, ref [14] = [14]; PMID 32093269; doi:10.3390/cells9020488; 14. Romanova E.A. Sharapova T.N. Telegin G.B. Minakov A.N. Chernov A.S. Ivanova O.K. Bychkov M.L. Sashchenko L.P. Yashin D.V. A 12-mer Peptide of Tag7 (PGLYRP1) Forms a Cytotoxic Complex with Hsp70 an ||| ref [15] = [15]; PMID 34163464; doi:10.3389/fimmu.2021.622471; 15. Telegin G.B. Chernov A.S. Kazakov V.A. Romanova E.A. Sharapova T.N. Yashin D.V. Gabibov A.G. Sashchenko L.P. A 8-mer Peptide of PGLYRP1/Tag7 Innate Immunity Protein Binds to TNFR1 Receptor and Inh ||| ref [10],[11] = [10]; PMID 26183779; doi:10.1074/jbc.M115.639732; 10. Yashin D.V. Ivanova O.K. Soshnikova N.V. Sheludchenkov A.A. Romanova E.A. Dukhanina E.A. Tonevitsky A.G. Gnuchev N.V. Gabibov A.G. Georgiev G.P. Tag7 (PGLYRP1) in Complex with Hsp70 Induces Altern || [11]; PMID 32636466; doi:10.1038/s41598-020-68088-x; 11. Sharapova T.N. Romanova E.A. Soshnikova N.V. Belogurov A.A. Jr. Lomakin Y.A. Sashchenko L.P. Yashin D.V. Autoantibodies from SLE patients induce programmed cell death in murine fibroblast cells th
Conditions: death under action of a specific ligand of TNFR1 or DNA-hydrolyzing autoantibodies; ref [10],[11]

B1: Tag7: innate immunity protein Tag7 (PGLYRP1), ligand of the TNFR1 receptor; recombinant (protein)
chain: QETEDPACCSPIVPRNEWKALASECAQHLSLPLRYVVVSHTAGSSCNTPASCQQQARNVQHYHMKTLGWCDVGYNFLIGEDGLVYEGRGWNFTGAHSGHLWNPMSIGISFMGNYMDRVPTPQAIRAAQGLLACGVAQGALRSNYVLKGHRDVQRTLSPGNQLYHLIQNWPHYRSP
Inhibition of death of tumor cells, Tag7: inhibits the death of tumor cells
